Test results from article PMC7661507, “Polyelectrolyte interactions enable rapid association and dissociation in high-affinity disordered protein complexes” (Nature Communications, 2020).
One block for each binder: values may come before it.

Legend:
Conditions in all cases: both partners purified
[1] = molecular target: T1, unlabeled recombinant wild-type human histone H1.0 (human, UniProt P07305 1-194); assay: single-molecule FRET of freely diffusing molecules, competition titration; 50 pM labeled ProTα and constant unlabeled H1 (10 nM; also 1 µM and 20 µM in Fig. 2), unlabeled ProTα varied; TBS, 200 mM ionic strength; coupled binding equilibria fit
T1 construct: linker histone H1.0, human, H1F0 gene, UniProt P07305, wild type; also called linker histone H1.0; unlabeled H1; source: bought: New England Biolabs (cat. # M2501S)

[2] = molecular target: T1, unlabeled recombinant wild-type human …; assay: single-molecule FRET of surface-immobilized molecules; biotinylated labeled ProTα immobilised on neutravidin/PEG surface, nanomolar unlabeled H1 in solution; degassed TBS in D2O, 200 mM ionic strength, oxygen scavenger; two-state hidden Markov model of photon time traces
[3] = molecular target: T1, unlabeled recombinant wild-type human …; assay: single-molecule FRET of freely diffusing molecules; 50 pM donor/acceptor-labeled ProTα titrated with unlabeled H1; fraction bound from transfer efficiency histograms; 10 mM TBS, 0.1 mM EDTA, 200 mM ionic strength (KCl), 140 mM β-mercaptoethanol, 0.01% Tween 20

- Kd [1]: 1.1 nM
B1: unlabeled ProTα (natural protein, human, UniProt P06454 1-111, looked up)
chain: MSDAAVDTSSEITTKDLKEKKEVVEEAENGRDAPANGNAENEENGEQEADNEVDEEEEEGGEEEEEEEEGDGEEEDGDEDEEAESATGKRAAEDDEDDDVDTKKQKTDEDD
notes: prothymosin α (ProTα), human, PTMA gene, UniProt P06454; The main text calls it only 'unlabeled ProTα'; also called prothymosin α; source: E. coli C41, purified (IMAC, tag cleavage, RP-HPLC)

- Kd [2]: 1.2 ± 0.1 nM
- koff [2]: 1.7 ± 0.1 s⁻¹
- kon [2]: 1.45e+09 M⁻¹ s⁻¹
B2: Avi-Tag-ProTα E56C/D110C labeled with Cy3B/LD650 (natural protein)
chain: MSDAAVDTSSEITTKDLKEKKEVVEEAENGRDAPANGNAENEENGEQEADNEVDEECEEGGEEEEEEEEGDGEEEDGDEDEEAESATGKRAAEDDEDDDVDTKKQKTDEDC
modifications: biotin on Lys12 of the Avi-tag; Cy3B maleimide and LD650 maleimide on the cysteines at positions 56 and 110

- Kd [3]: 0.73 nM
B3: ProTα E56C/D110C labeled with Alexa Fluor 488/594 (natural protein)
chain: SDAAVDTSSEITTKDLKEKKEVVEEAENGRDAPANGNAENEENGEQEADNEVDEECEEGGEEEEEEEEGDGEEEDGDEDEEAESATGKRAAEDDEDDDVDTKKQKTDEDC
modifications: Alexa Fluor 488 maleimide and Alexa Fluor 594 maleimide on the cysteines at positions 56 and 110
